The DeepSol protein solubility set

Experiment: soluble on expression in E. coli; label from the status in PepcDB or PDB records
For “MGSDKIHHHHHHMLSMKNIVGKPQTIKKVNEDLIKNIIKNEGPITKPEISSITELSLATVNKIVEQLALKNEVKVSGLSESTGGRRAQLFEINANLEHIIALYYYRNCCIGVVANLLGEIIYQEEFNIRMDTYENVNQDTFFVIDTLIKKEKGNNIRAIGIGVPGVVKKGVVKNIPTIKSWEGINLENLIKSKYNTKVFIENDTNITTIGIYQKQYKDKYKNMALMYLEDGIGSGIVINGELYLGSTNFAGELSYLNIEFGKYNSNNLNLEDYIMSLRKRYLESKDNKFKKEILSIISNFIRTLVCVLNPQAMIIQCSILTKSDMEFIEKDVSNNVGEENFPKLIKVESLREGSINGVISMCLKETDYQYSLSNKKGGY”, the “soluble on expression in E. coli” value was “not soluble”.
With “LYGYYCMQEEEQLVYWYSGLYLQPQHFQSIDLHHGFMLARSRQLSQPHHQGYYECCINDDLLKEDTVRVEKIKAVLSSGYYIEYPGNCVVQDKCLTNLKGSDHGTVDLWLALKRFNSGHKNVSSVNDKRGSARWISSDDERNMRNVYHDSQDADITRIKYDIQILTDEEKDNTTDYEYLPLTRIIYGNNSLCIDDECSFPVMRLSANHKLRNKIAEIYSDIKFYKNRLEKYRYTERTVSDGHLYNFLILCAINRTLPLLSSFINEDAIHPWLYYMALCQFAGEISTFHNSGLSDTRIVELSYNHYEQISCFSDLQYYIKLILDDSCRDKIISVEFRKITTDTLICNFDEYGAGSNSDYYIKLTSDTFRKNKLIALPEIKIAPSEHIDMIIQHALPGIKFTVMDAVTSDLQVRENTIWLKIDKHSELWTLAQTQKRVAFYWSCSPDDLLVELVLSQEKYAVSRPKQDNGSFHPAVGR” the “soluble on expression in E. coli” value was “not soluble”.
For “MSHAHKKHKENAPKSLNFYVITISTSRYEKLLKKEPIVDESGDIIKQLLIENGHKIIGYSLVPDDKIKILKAFTDALSIDEVDVIISTGGTGYSPTDITVETIRKLFDREIEGFSDVFRLVSFNDPEVKAAAYLTKASAGIIGKKIVYLLPGSPDAVKLALKELILPEVGHLVYLVRS”, the “soluble on expression in E. coli” value was “soluble”.
In the case of “MTNQKQTTHFGFKSVDWNEKEKKVAEVFHSVAKNYDRMNDLMSLGIHHLWKRYTIELSHVRPGQSVLDLAGGSGDLTRLLLQKVGDSGQVILADINAAMLHVGRDRLLDEGLFKNIRYVQGNAQCLPFADNSFHCITMGFGLRNVTDKDEALQSMYRVCKPGGKLMVLEFSTPVFPGLKPVYDWYSFNILPKIGKFVANDEASYQYLAESIRMHPDQETLKAMIERVGFEDCHYHNLSGGIVALHIAYKYLEHHHHHH”, the “soluble on expression in E. coli” value is reported as “not soluble”.
With “MSLKIAMIGLGDIAQKAYLPVLAQWPDIELVLCTRNPKVLGTLATRYRVSATCTDYRDVLQYGVDAVMIHAATDVHSTLAAFFLHLGIPTFVDKPLAASAQECENLYELAEKHHQPLYVGFNRRHIPLYNQHLSELAQQECGALRSLRWEKHRHALPGDIRTFVFDDFIHPLDSVNLSRQCNLDDLHLTYHMSEGLLARLDVQWQTGDTLLHASMNRQFGITTEHVTASYDNVAYLFDSFTQGKMWRDNQESRVALKDWTPMLASKGFDAMVQDWLQVAAAGKLPTHIIERNLASHQLAEAICQQITQQVTKGEGGSHHHHHH” the “soluble on expression in E. coli” value was “soluble”.
With “MVTEKTLRTCEQGHEYYKSSDCPTCPVCEKERKPKESFLSLLSAPARRALEHRGIQTVEELSKYSEKEILKLHGMGPASLPKLKKVLEESWLSFK” the “soluble on expression in E. coli” value was “not soluble”.
With “MKKKQVMLALTAAAGLGLTALHSAPAAKAAPLHDISVSMPSSDTYIIKAGKLNVRTEPNHEGDILGTVSSEQKVKVDRFVNADWAQIHFKGKKAYISTHFLMKTASQAKTTKQTAFYTPTPENGKAKQLSSGTEVTILGWGFSENGGFDFTWAFVDYGGVKGYIHTKDLQMRLEHHHHHH” the “soluble on expression in E. coli” value was “soluble”.
For “MQGFQPPAEKDAIEFAKKHRKEFEKVGEQFFKDNFGLKVKATNVVGKDDGIEVYVHCDDHGIVFNASLPLYKDAIHQKGSMRSNDNGDDMSMMVGTVLSGFEYRAQKEKYDNLYKFFKENEKKYQYTGFTKEAINKTQNVGYKNEYFYITYSSRSLKEYRKYYEPLIQKNDKEFKEGMERARKEVNYAADTDAVATLFSTKKNFTNDNTEDDVIELSDKLYNLKNKPDKSTITIQIGKPTINTKKAFYDDNRPIEYGVHSKGELEHHHHHH”, the “soluble on expression in E. coli” value was “soluble”.
In the case of “MGSDKIHHHHHHMQDSPVVLKVSHVAKSFRLPTEQATGLKMAFLNWTKGIKGYTEQKVLRDIDFEVHRGDFFGVVGRNGSGKSTLLKIISQIYVPDQGSVDVYGKLVPFIELGVGFNPELTGRENVYLNGALLGFSHSEIDAMYDDIVEFAELEEFMDQKLKNYSSGMQVRLAFSVAIKAQGDILVLDEVLAVGDEAFQRKCDAFFKKVQADPNKTVILVTHSMDAVKKYCNKAILIRDGEIVVSGDKNQVADQYTLDNLKGNEPLPEKKKQNGEYAIGLNATVPELKIVPKSDLSTDGKHPFQFDVVYEYKDSGTHYVAVNLLDLKRGGIVYDSGSRTLVQTSSGKHRFALEMPIDMLNSGVYRLYASVRVDDGDSADSETKMVAFTNEANGCVFSINNPDHEDYALLNEKAMIIRKRK”, the “soluble on expression in E. coli” value is reported as “not soluble”.
For “MGSDKIHHHHHHMSDARGAFHSKGRWSRMALPAILCAGLLVGCGAEPPAEEHVRVLAQTVKMAEFASATSITGDIQARVQADQSFRVGGKIVERLVDVGDHVAAGQVLARLDPQDQRSNVENAQAAVAAQQAQSKLADLNYQRQKALLPKGYTSQSEYDQALASVRSAQSSLKAAQAQLANARDLLSYTELRASDAGVITARQAEVGQVVQATVPIFTLARDGERDAVFNVYESLFSHDVDGQRITVSLLGKPEVTASGKVREITPTVDERSGTLKVKVGLDSVPAEMSLGSVVNASVAAPAEHSVVLPWSALSKVGEQPAVWLLDQQGKARLQPVRVARYASEKVVIDGGLEAGQTVVTVGGQLLHPGQVVEVAQPPQPTQSTASRDAVGGGQP”, the “soluble on expression in E. coli” value was “not soluble”.
In the case of “SPSAEECGYSDRVRSITLGNSTITTQESANVVVGYGRWPEYLRDDEATAEDQPTQPDVATCRFYTLESVTWEKDSPGWWWKFPDALKDMGLFGQNMYYHYLGRAGYTIHVQCNASKFHQGCLLVVCVPEAEMGCSTVDGTVNEHGLSEGETAKKFSATGTNGTNTVQSIVTNAGMGVGVGNLTIFPHQWINLRTNNCATIVMPYINNVPMDNMFRHHNFTLMIIPFVPLNYSSDFSTYVPITVTVAPMCAEYNGLRLSTALQ”, the “soluble on expression in E. coli” value is reported as “soluble”.
For “MKKFIGSVLTTTLILGGCSAMENESNKDTNTETKSVPEEMEASKYVGQGFQPPAEKDAIEFAKKHRKEFEKVGEQFFKDNFGLKVKATNVVGKDDGVEVYVHCEDHGIVFNASLPLYKDAIHQKGSMRSNDNGDDMSMMVGTVLSGFEYRAQKEKYDNLYKFFKENEKKYQYTGFTKEAINKTQNVGYQNEYFYITYLSRNLKEYRKYYEPLIHKNDKEFKEGMQQARKELDYTANTDAVSTLFSTKKNFTKDNTVDDVIELSNKLKEKPNMPQKSQVTIQLGKSSINTKKPFYDDINPIEGLEHHHHHH”, the “soluble on expression in E. coli” value was “not soluble”.
In the case of “MAHHHHHHMPVSHHEGCGCKNSDEVLKGGEFLLKYINIDKVTALNEKTHGSCRKILKSYDNRLSPDNCESDVDHELIINIPFNSPCKISSLFLIGGEEGTYPRKIKIFSNREDIDFGNINDFKCVQELELSQDFHGSIEYPLKVTSLFNVSYLTLYFYENYGADTTKIFYIGLKGVGTNYIRKAVETVYEASPNLSDHKIEGSSKAAHFRFDAF”, the “soluble on expression in E. coli” value is reported as “soluble”.
For “MEDILMPEGEKVSMENFALLRVLGKGAYGKVFLVRKVGGKDHNTIYAMKVLRKTRVLTKQKTLEHTMAERQVLERLRGTPFLVNLFYAFQTDTKLHIVMEYVRGGELFTHLCSRGHFDLEAARFVIAELVVAIDSLHQRKVIYRDLKLENILLDEEGHVKLTDFGLSKLFLPGELDRANSYCGTIEYMSPEVINRPEGGYSDVVDWWSLGVISFELLTGCSPFTVDGAQNSSKDIAKRIMTKKVPFPKTMDVDARDFIGQLLEKKLEKRLGYNGVDEIKNHKFMSSIDWDAAVKRTLKPVIVPRIGHDLDTQFFSAEFTSQPPLYSPAESPLNANTLFRGYSYVSPSVIFANDNVIGEELMAEDVNALLASSSFFAKYKLDKSDAGLLGKGAFSVVRRCERVVDGAQFAVKIVSQKFASQAQREARILEMVQGHPNIVQLHDVHSDPLHFYLVMEILTGNELLERIRKLERFTESEAADIMRQLVSAVKYLHDKRIVHRDLKPENILFESIDSSARLRLVDFGFARLLPNSMEQQLKSVQVLRKMTPCFTLQYAAPEVLDVGDSQPEYNEQCDLWSLGVVLFTMLSGQVPFHARSRQESATEIMQRICRAEFSFTGDAWTNVSADAKNLITGLLTVDPKKRLSMQELTAHMWLKSSASMDTPLQTPSILPSSADETFNETLRAFLHANRDGFHLLDVAAAPLMKRRGIKRQSGDKDASGNSKNSRVTQFECLPEEQEAEMTSSTSRPSNLGMMNYREPNSGTIRETRGSDSS”, the “soluble on expression in E. coli” value was “not soluble”.
For “MAHHHHHHMPPPNTLQRGSEWVAQCMRDIKAAKLQQTVRPYSNGTPAGEALPVRTIVATSRIHRGEHLGTVKRDSIMTGERASQLLRRACRGGPSQTDVTAATGLQPLAAQRFDDLVSRISSLPSALSVPPHLLLSRDALLVTVALYLTRSPLNAGVLPAESPLRAWADALPRRPPPMGALLRRSFLSHDDVEPLPRRLRLGQRTKEVAPGEDVAAASTELMVQAVEQGELELADLRRPEMETALTPTVLTNYFKGRMSALTQRQRQSQRARGGVAEAEEGALHLFMTWERQLQTHFVDALLPVLLLPSCGSCASNLEAVQDSAAWLGEESALRWAHFMTRSRAVNLNWRHPGPPQLSIVPLVDMLNHTSRANANVVYQREDSGDVCVTASRTIEAGEELVLRYNHIGQRGCLFGDLPRPSKPTAEHERGRLSGKAAAVADEVHRIEKRQYWELYACDEDEEAVQHTGHTPSTSFTASTRCGTFDPAPPAAVGQQEMEQEVQWLWRFGFLRSNEEKNREAALLWSRGLRSRIAHLTDVRRKGRPGEFVLGVPEGLQHLREQREQLERNRYNNKKVFPPQQL”, the “soluble on expression in E. coli” value was “not soluble”.
In the case of “MGSDKIHHHHHHEDDLSAKAWLKNMSQAMHDKQYKTSIIQLQADHIRPLVYIHGIVDNKEVALLEYLNGPPKNAVRVGNTVTFIEHDQPAYSVVAPRIQGIWPAALAGDLSQLEKGYQFVIGGRGRIAGRPGQMIRLLANDDNRYDAQVWIDMDTYLPLRFDSLNKEKQLLEQTMVIELIELTEPANILIEAAKQEWPAVMNQAERTDGKNWQFTWLPEGFDVVVRDHHRLIGIHEPVEYVALTDGLANISVYVARAGENPMPNELLIRNGLSMVVVKVGTLEVVAIGKVPSETLDKIANSLVLK”, the “soluble on expression in E. coli” value is reported as “not soluble”.
In the case of “MGSDKIHHHHHHMRIVHISDLHFGEELIREKVEKAVRQINEIEPDLLVITGDLSCWGIHSEMRDAYETLLDLKPDYIAVPGNHDARNIGYEFFQLYFGETKKYWKNDVVSLIAADSTQPDLDDGYIGKEQRDWIVSKIRKDRFNILALHHHIAPIPKTGRERNVLIDAGEMVELLIANGISAVLAGHRHMPYSLRLMRTHVIHAGTLGSFKVLGMPDHNYNVIEIKDNTLTLKLRFVDYGEVEIGRYTINPETPESISVYQRIAKPKKVLFLSRSNDCRTKIAEAIFNHISPNNMLAVSAGIEPAQDLDLRAVATMRELGLKINGKPRKFSEDMVSDFDAIVEFDELGVGEFWDVKKPSSAEEYREVRSEIWRRVEELVKRLLA”, the “soluble on expression in E. coli” value is reported as “not soluble”.
In the case of “MGFHPIELRIQILGLSAFGVDSKEIAAALDVPVRSVQRIIQRAKERGFDPATDPRVKMEYVEDAERSGRPKKGSKVMAAKSQAGSTSGSESVVAAGSEVGDGNRNSMPEAQA”, the “soluble on expression in E. coli” value is reported as “not soluble”.
For “MSSNFIVESCSVDSEEGVKLHTRIFKPRNEGEEVSDDENLVIVLVHPFSLLGGCQALLKGIASELASKGFKSVTFDTRGAGKSTGRATLTGFAEVKDVVAVCRWLCQNVDAHRILLVGSSAGAPIAGSAVEQVEQVVGYVSLGYPFGLMASILFGRHHKAILSSPKPKLFVMGTQDGFTSVSQLKKKLKSAVGRTETHLIEGVSHFQMEGPEYDSQVTDIICKFISSL”, the “soluble on expression in E. coli” value was “not soluble”.
